Assay results published in patent US20200369769A1 (Bayer, published 2020).
Each block holds one binder with its values, some of them ahead of it.

What was measured:
[1] = molecular target: T1, human ILDR2 (Immunoglobulin Like Domain Containing Receptor 2) (human, UniProt Q71H61 21-639); experiment: cell-based or functional assay
T1 sequence (looked up): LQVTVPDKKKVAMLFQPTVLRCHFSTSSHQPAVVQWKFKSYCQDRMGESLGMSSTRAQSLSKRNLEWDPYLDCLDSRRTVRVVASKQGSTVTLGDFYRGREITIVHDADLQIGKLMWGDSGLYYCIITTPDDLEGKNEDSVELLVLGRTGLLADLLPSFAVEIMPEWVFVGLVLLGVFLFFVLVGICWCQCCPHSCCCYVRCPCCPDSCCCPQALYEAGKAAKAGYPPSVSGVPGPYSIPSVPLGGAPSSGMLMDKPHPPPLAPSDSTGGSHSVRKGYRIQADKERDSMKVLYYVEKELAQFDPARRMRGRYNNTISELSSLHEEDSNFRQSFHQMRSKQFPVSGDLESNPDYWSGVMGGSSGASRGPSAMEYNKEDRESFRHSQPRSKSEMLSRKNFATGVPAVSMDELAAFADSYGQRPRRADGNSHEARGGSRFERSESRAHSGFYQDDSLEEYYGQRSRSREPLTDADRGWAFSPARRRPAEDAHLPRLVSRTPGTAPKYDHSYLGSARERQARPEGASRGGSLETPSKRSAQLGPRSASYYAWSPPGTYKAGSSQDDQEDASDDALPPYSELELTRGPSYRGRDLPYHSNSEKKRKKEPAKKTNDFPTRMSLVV

[2] = molecular target: T1, human ILDR2 (Immunoglobulin Like Domain …); experiment: flow cytometry titration of hIgG1 on HEK cells stably transfected with human ILDR2; 1:1 equilibrium fit of MFI
Experimental: KD values were determined by flowcytometric quantitation of binding to HEK cells stably transfected with human ILDR2 and use of an algorithm designed to extrapolate affinities based on the binding curve. Briefly, hIgG1 s were added at a binding site concentration range of 3 pM-209 nM to a constant number of cells (100,000 cells/well) over 16 wells in a 96-well plate. One well contained cells without any added IgG to serve as a blank well. The cells were equilibrated for 4 hours at 4° C. An excess of Cy5-labeled goat anti-human polyclonal antibody (Jackson ImmunoResearch 109-606-097) at 90nM was added to each well after one FACS buffer wash of the cells. Cells were washed twice after a 30 minute incubation (at 4° C.) with the labeling pAb and then the Mean Fluorescence Intensity (MFI) was recorded over approximately 10,000 “events” using an Intellicyte flow cytometer. The […] of the IgGs binding to HEK 293 cells expressing ILDR2 were estimated by fitting the MFI vs. the IgG binding site concentration curve using a 1:1 equilibrium model as detailed in Drake and Klakamp (2007).

B1: 61-02.C05 (antibody, V domains shown)
VH: EVQLVESGGGVVQPGGSLRLSCAASGFTFSSYAMSWVRQAPGKGLEWVSGISSSGGSTQYADSVKGRFTVSRDNSKNTLYLQMKSLRAEDTALYYCAKDFVGVLPDAFDIWGQGTMVTVSS
VL: DIQLTQSPSSLSASVGDRVTITCQASQDTNKYLNWYQQKPGKAPELLIYGASTLESGVPPRFSASGSGTDFTLTINSLQPEDIGRYYCQQYHIPPPSFGGGTKLEIK
notes: Full length IgG; The KD assay says 'hIgG1s'; also called 61-02.005
- IL2 concentration (% over isotype control), mixed lymphocyte reaction [1]: 82 % over isotype control
- Kd [2]: 10.7 nM

B2: 74.15.G09 (antibody, V domains shown)
VH: EVQLVESGGGVVQPGRSLRLSCAASGFTFSSYGMHWVRQAPGKGLEWVAVISYDGSNKYYADSVKGRFTISRDNSKNTLYLQMNSLRAEDTAVYYCAKESPSVGLGSYYDFWSGLYGMDVWGQGTTVTVSS
VL: EIVLTQSPGTLSLSPGERVTLSCRTGQRVENLFIAWYQQKPGQAPRLLLYGASNRATGIPDRFSGSGSGTDFTLTISRLEPEDSAVYYCQQYDDSGITFGQGTRLEIK
notes: Full length IgG; The KD assay says 'hIgG1s'
- IL2 concentration (% over isotype control), mixed lymphocyte reaction [1]: 86 % over isotype control
- Kd [2]: 12.4 nM

B5: 56.02.E10 (antibody, V domains shown)
VH: QVQLVESGGGLVKPGGSLRLSCAASGFTFSNYGMHWVRQAPGKGPEWLAFIRYDGSKKYYADSVRGRFTISRDNSKNMLYLQMNSLRTEDTAVYYCAKEGIAAPGSGYYYGMDVWGQGTTVTVSS
VL: QSALTQPASVSGSPGQSITISCSGTTTDVGRYTLVSWYQHHPGKAPKLIIFEVNKRPSGVSSRFSGSKSGNTASLTISGLQTEDEADYFCCSYTGTTVIFGGGTQLTVL
- IL2 concentration (% over isotype control), mixed lymphocyte reaction [1]: 223 % over isotype control

The remaining binders from weak to strong by Kd [2], led by results:

- IL2 concentration (% over isotype control), mixed lymphocyte reaction [1]: 74 % over isotype control
- Kd [2]: 2.7 nM
B3: 56-02.E08 (antibody, V domains shown)
VH: EVQLVQSGAEVKKPGESLKISCKASGYSFTTYWIGWVRQVPGKGLEWMGIIYPGDYDTRYSPSFQGQVTISADKSINTAYLQWSSLEASDSAMYYCAIGEPFDYWGQGTLVTVSS
VL: not shown
notes: as for B2

- IL2 concentration (% over isotype control), mixed lymphocyte reaction [1]: 91 % over isotype control
- Kd [2]: 2 nM
B4: 59-08.B02 (antibody, V domains shown)
VH: QVQLVQSGAEVKKPGSSVKVSCKASGGTFSSYAISWVRQAPGQGLEWMGGIIPILGIANYAQKFQGRVTITADKSTSTAYMELSSLRSEDTAVYYCARGRLPYGDFWDSWGQGTLVTVSS
VL: not shown
notes: also called BAY1905254; aILDR2
